Results on five substances are retold here after patent US20090036374A1.

Assay [1] deals with hepatocyte growth factor (HGF) (UniProt P14210). Kind of assay: cell-based or functional assay.
Assay [2] addresses Met on MDCK II cells (Madin-Darby canine kidney) (canine (cell line MDCK II)) (UniProt Q75ZY9). Kind of assay: cell-based or functional assay.

In assay [1], “Met-877 His tag protein (Met-877 splice variant with C-terminal Strep II and 8xHis tags) (from UniProt P08581 25-861) (receptor)” returned an amount of inhibitory protein that gave roughly 50% inhibition of scattering, HGF ~5-7 ng/ml, MDCK and HT115 of 0.1 to 1 µg/mL; an inhibition of HGF-induced Met tyrosine phosphorylation, A431 or A549 cells, 100 µg/ml Met-877, 10 ng/ml HGF of 70%; an inhibition of Met tyrosine phosphorylation, NCI-H441 cells (constitutive phosphorylation), 100 µg/ml Met-877, 10 ng/ml HGF of 40%; a scattering score, HT115, inhibitor 1 µg/ml, HGF 7 ng/ml of 1 score 1-5. In assay [1], this substance gave a scattering score, HT115, inhibitor 5 µg/ml, HGF 7 ng/ml of 1 score 1-5; a scattering score, HT115, inhibitor 10 µg/ml, HGF 7 ng/ml of 1 score 1-5; a scattering score, HT115, inhibitor 10 µg/ml, HGF 50 ng/ml of 3 score 1-5; a scattering score, HT115, inhibitor 100 µg/ml, HGF 50 ng/ml of 1 score 1-5. Further, in assay [1], the scattering score, MDCK, inhibitor 0.1 µg/ml, HGF 5 ng/ml came out at 5 score 1-5; the scattering score, MDCK, inhibitor 30 µg/ml, HGF 50 ng/ml amounted to 4 score 1-5; the scattering score, MDCK, inhibitor 100 µg/ml, HGF 50 ng/ml worked out at 3 score 1-5.
On to “Met-877-Fc (Met-877 splice variant fused to human IgG1 Fc) (Fc fusion)”, for which, in assay [1], the amount of inhibitory protein that gave roughly 50% inhibition of scattering, HGF ~5-7 ng/ml, MDCK and HT115 lay within 0.1 to 1 µg/mL; the inhibition of HGF-induced Met phosphorylation, A549 and MDA-MB-231 cells, doses higher than 3-10 nM is above 90%; the inhibition of HGF-induced phosphorylation of Met Y1230/4/5, MDA-MB-231 cells, 3 nM variant is above 60%; the inhibition of HGF-induced proliferation of AsPC-1 cells (BrdU incorporation), 10 ng/ml HGF, 877-Fc at 100 and 300 nM is 90%. For the same substance, in assay [1], the inhibition of HGF-induced urokinase upregulation, MDCK II, 10 ng/ml HGF, 3 nM variant lay within 60 to 80%; the inhibition of HGF-induced urokinase upregulation, MDCK II, 10 ng/ml HGF, 10 nM variant was 80%; the inhibition of HGF-induced urokinase upregulation, MDCK II, 10 ng/ml HGF, doses higher than 10 nM is above 95%; the inhibition of HGF-induced urokinase upregulation, MDCK II, 10 ng/ml HGF, variant at 50 nM or more was above 95%. In assay [1], this substance gave a scattering score, HT115, inhibitor 0.1 µg/ml, HGF 3 ng/ml of 2 score 1-5; a scattering score, HT115, inhibitor 0.1 µg/ml, HGF 5 ng/ml of 3 score 1-5; a scattering score, HT115, inhibitor 5 µg/ml, HGF 5 ng/ml of 1 score 1-5; a scattering score, HT115, inhibitor 5 µg/ml, HGF 7 ng/ml of 1 score 1-5. In assay [1], the scattering score, HT115, inhibitor 10 µg/ml, HGF 1 ng/ml worked out at 1 score 1-5; the scattering score, HT115, inhibitor 10 µg/ml, HGF 3 ng/ml was determined as 1 score 1-5; the scattering score, HT115, inhibitor 10 µg/ml, HGF 5 ng/ml turned out to be 1 score 1-5; the scattering score, HT115, inhibitor 10 µg/ml, HGF 7 ng/ml stood at 1 score 1-5. Also, in assay [1], the scattering score, HT115, inhibitor 10 µg/ml, HGF 50 ng/ml was determined as 2 score 1-5; the scattering score, HT115, inhibitor 100 µg/ml, HGF 50 ng/ml came out at 1 score 1-5; the scattering score, MDCK, inhibitor 0.1 µg/ml, HGF 7 ng/ml was found to be 5 score 1-5; the scattering score, MDCK, inhibitor 1 µg/ml, HGF 1 ng/ml turned out to be 1 score 1-5. For the same substance, in assay [1], the scattering score, MDCK, inhibitor 1 µg/ml, HGF 5 ng/ml came to 3 score 1-5; the scattering score, MDCK, inhibitor 1 µg/ml, HGF 7 ng/ml is 3 score 1-5; the scattering score, MDCK, inhibitor 1 µg/ml, HGF 10 ng/ml turned out to be 3 score 1-5; the scattering score, MDCK, inhibitor 5 µg/ml, HGF 10 ng/ml worked out at 2 score 1-5. Moreover, in assay [1], the scattering score, MDCK, inhibitor 10 µg/ml, HGF 1 ng/ml came out at 1 score 1-5; the scattering score, MDCK, inhibitor 10 µg/ml, HGF 5 ng/ml came out at 1 score 1-5; the scattering score, MDCK, inhibitor 10 µg/ml, HGF 7 ng/ml is 1 score 1-5; the scattering score, MDCK, inhibitor 10 µg/ml, HGF 10 ng/ml was found to be 1 score 1-5. Moreover, in assay [1], the scattering score, MDCK, inhibitor 10 µg/ml, HGF 30 ng/ml amounted to 2 score 1-5; the scattering score, MDCK, inhibitor 30 µg/ml, HGF 10 ng/ml was determined as 1 score 1-5; the scattering score, MDCK, inhibitor 30 µg/ml, HGF 30 ng/ml came out at 1 score 1-5; the scattering score, MDCK, inhibitor 30 µg/ml, HGF 100 ng/ml amounted to 2 score 1-5. The substance also came in with a scattering score, MDCK, inhibitor 100 µg/ml, HGF 100 ng/ml in assay [1] of 1 score 1-5.
In assay [1], “Met-885-Fc (Met-885 splice variant fused to human IgG1 Fc) (Fc fusion)” registered an amount of inhibitory protein that gave roughly 50% inhibition of scattering, HGF ~5-7 ng/ml, MDCK and HT115 of 0.1 to 1 µg/mL; an inhibition of HGF-induced Met phosphorylation, A549 and MDA-MB-231 cells, doses higher than 3-10 nM above 90%; an inhibition of HGF-induced phosphorylation of Met Y1230/4/5, MDA-MB-231 cells, 3 nM variant above 60%; an inhibition of HGF-induced urokinase upregulation, MDCK II, 10 ng/ml HGF, 3 nM variant of 60 to 80%. In assay [1], the inhibition of HGF-induced urokinase upregulation, MDCK II, 10 ng/ml HGF, doses higher than 10 nM was above 95%; the scattering score, HT115, inhibitor 1 µg/ml, HGF 7 ng/ml amounted to 1 score 1-5; the scattering score, HT115, inhibitor 5 µg/ml, HGF 7 ng/ml stood at 1 score 1-5; the scattering score, HT115, inhibitor 10 µg/ml, HGF 7 ng/ml came to 1 score 1-5. In assay [1], this substance had a scattering score, HT115, inhibitor 30 µg/ml, HGF 50 ng/ml of 2 score 1-5; a scattering score, MDCK, inhibitor 1 µg/ml, HGF 5 ng/ml of 2 score 1-5; a scattering score, MDCK, inhibitor 5 µg/ml, HGF 5 ng/ml of 2 score 1-5.
In assay [1], “Met-934-Fc (Met-934 splice variant fused to human IgG1 Fc) (Fc fusion)” returned an amount of inhibitory protein that gave roughly 50% inhibition of scattering, HGF ~5-7 ng/ml, MDCK and HT115 of 0.1 to 1 µg/mL; an inhibition of HGF-induced Met phosphorylation, A549 and MDA-MB-231 cells, doses higher than 3-10 nM above 90%; an inhibition of HGF-induced phosphorylation of Met Y1230/4/5, MDA-MB-231 cells, 3 nM variant above 60%; an inhibition of HGF-induced urokinase upregulation, MDCK II, 10 ng/ml HGF, 3 nM variant of 60 to 80%. For the same substance, in assay [1], the inhibition of HGF-induced urokinase upregulation, MDCK II, 10 ng/ml HGF, doses higher than 10 nM is above 95%; the scattering score, MDCK, inhibitor 10 µg/ml, HGF 50 ng/ml was found to be 3 score 1-5; the scattering score, MDCK, inhibitor 10 µg/ml, HGF 100 ng/ml worked out at 5 score 1-5; the scattering score, MDCK, inhibitor 30 µg/ml, HGF 50 ng/ml came to 2 score 1-5. Also, the scattering score, MDCK, inhibitor 100 µg/ml, HGF 100 ng/ml in assay [1] was 1 score 1-5.
Regarding “hepatocyte growth factor (HGF) (from UniProt P14210 32-728) (ligand)”, the scattering score, MDCK, no inhibitor, HGF 5-100 ng/ml in assay [2] amounted to 5 score 1-5.
